The chains are these.
B1: target 1 C4G,A18U (mixed)
RNA 1: CACCCGUGCAAAAAUGCAGGGGUCUAAAACUGAGCGGAUAACCUCUCUAUGG
RNA 2: GGGAAUGGAUCCACAUCUACGAAUUCGUACCAUUGAGAGGUUAUCCGGUCACCGAGAUCGGAAGAGCACACGU
B2: target 1 insG 3' of 21,insU 3' of 7 (mixed)
RNA 1: CACCCGUGCAAAAAUGCAGGGGUCUAAAACUGAGCGGAUAACCUCUCUAUGG
RNA 2: GGGAAUGGAUCCACAUCUACGAAUUCGUACCGAUAGAGAGGUUAUCUCGCUCACCGAGAUCGGAAGAGCACACGU
B3: target 1 insU 3' of 20,insC 3' of 15 (mixed)
RNA 1: CACCCGUGCAAAAAUGCAGGGGUCUAAAACUGAGCGGAUAACCUCUCUAUGG
RNA 2: GGGAAUGGAUCCACAUCUACGAAUUCGUACCAUUAGAGCAGGUUAUCCGCUCACCGAGAUCGGAAGAGCACACGU
B4: target 1 insA 3' of 7,insU 3' of 1 (mixed)
RNA 1: CACCCGUGCAAAAAUGCAGGGGUCUAAAACUGAGCGGAUAACCUCUCUAUGG
RNA 2: GGGAAUGGAUCCACAUCUACGAAUUCGUACCAUAGAGAGGUUAUCACGCUCAUCCGAGAUCGGAAGAGCACACGU
B5: target 1 insA 3' of 21,insC 3' of 5 (mixed)
RNA 1: CACCCGUGCAAAAAUGCAGGGGUCUAAAACUGAGCGGAUAACCUCUCUAUGG
RNA 2: GGGAAUGGAUCCACAUCUACGAAUUCGUACCAAUAGAGAGGUUAUCCGCCUCACCGAGAUCGGAAGAGCACACGU
B6: target 1 insG 3' of 9,insC 3' of 3 (mixed)
RNA 1: CACCCGUGCAAAAAUGCAGGGGUCUAAAACUGAGCGGAUAACCUCUCUAUGG
RNA 2: GGGAAUGGAUCCACAUCUACGAAUUCGUACCAUAGAGAGGUUAGUCCGCUCCACCGAGAUCGGAAGAGCACACGU
B7: target 1 insG 3' of 16,insG 3' of 10 (mixed)
RNA 1: CACCCGUGCAAAAAUGCAGGGGUCUAAAACUGAGCGGAUAACCUCUCUAUGG
RNA 2: GGGAAUGGAUCCACAUCUACGAAUUCGUACCAUAGAGGAGGUUGAUCCGCUCACCGAGAUCGGAAGAGCACACGU
B8: target 1 A1U,A20C (mixed)
RNA 1: CACCCGUGCAAAAAUGCAGGGGUCUAAAACUGAGCGGAUAACCUCUCUAUGG
RNA 2: GGGAAUGGAUCCACAUCUACGAAUUCGUACCCUAGAGAGGUUAUCCGCUCUCCGAGAUCGGAAGAGCACACGU
B9: target 1 insA 3' of 11,insG 3' of 7 (mixed)
RNA 1: CACCCGUGCAAAAAUGCAGGGGUCUAAAACUGAGCGGAUAACCUCUCUAUGG
RNA 2: GGGAAUGGAUCCACAUCUACGAAUUCGUACCAUAGAGAGGUAUAUCGCGCUCACCGAGAUCGGAAGAGCACACGU
B10: target 1 insA 3' of 7,insA 3' of 2 (mixed)
RNA 1: CACCCGUGCAAAAAUGCAGGGGUCUAAAACUGAGCGGAUAACCUCUCUAUGG
RNA 2: GGGAAUGGAUCCACAUCUACGAAUUCGUACCAUAGAGAGGUUAUCACGCUCAACCGAGAUCGGAAGAGCACACGU
B11: target 1 insC 3' of 8,insU 3' of 2 (mixed)
RNA 1: CACCCGUGCAAAAAUGCAGGGGUCUAAAACUGAGCGGAUAACCUCUCUAUGG
RNA 2: GGGAAUGGAUCCACAUCUACGAAUUCGUACCAUAGAGAGGUUAUCCCGCUCUACCGAGAUCGGAAGAGCACACGU
B12: target 1 insU 3' of 7,insA 3' of 7 (mixed)
RNA 1: CACCCGUGCAAAAAUGCAGGGGUCUAAAACUGAGCGGAUAACCUCUCUAUGG
RNA 2: GGGAAUGGAUCCACAUCUACGAAUUCGUACCAUAGAGAGGUUAUCUACGCUCACCGAGAUCGGAAGAGCACACGU
B13: target 1 C6G,G17C (mixed)
RNA 1: CACCCGUGCAAAAAUGCAGGGGUCUAAAACUGAGCGGAUAACCUCUCUAUGG
RNA 2: GGGAAUGGAUCCACAUCUACGAAUUCGUACCAUACAGAGGUUAUCGGCUCACCGAGAUCGGAAGAGCACACGU
B14: target 1 A1U,G12C (mixed)
RNA 1: CACCCGUGCAAAAAUGCAGGGGUCUAAAACUGAGCGGAUAACCUCUCUAUGG
RNA 2: GGGAAUGGAUCCACAUCUACGAAUUCGUACCAUAGAGAGCUUAUCCGCUCUCCGAGAUCGGAAGAGCACACGU
B15: target 1 insA 3' of 8,insG 3' of 7 (mixed)
RNA 1: CACCCGUGCAAAAAUGCAGGGGUCUAAAACUGAGCGGAUAACCUCUCUAUGG
RNA 2: GGGAAUGGAUCCACAUCUACGAAUUCGUACCAUAGAGAGGUUAUACGCGCUCACCGAGAUCGGAAGAGCACACGU
B16: target 1 del8,del20 (mixed)
RNA 1: CACCCGUGCAAAAAUGCAGGGGUCUAAAACUGAGCGGAUAACCUCUCUAUGG
RNA 2: GGGAAUGGAUCCACAUCUACGAAUUCGUACCUAGAGAGGUUACCGCUCACCGAGAUCGGAAGAGCACACGU
B17: target 1 G13U (mixed)
RNA 1: CACCCGUGCAAAAAUGCAGGGGUCUAAAACUGAGCGGAUAACCUCUCUAUGG
RNA 2: GGGAAUGGAUCCACAUCUACGAAUUCGUACCAUAGAGAUGUUAUCCGCUCACCGAGAUCGGAAGAGCACACGU
B18: target 1 insG 3' of 16,insG 3' of 16 (mixed)
RNA 1: CACCCGUGCAAAAAUGCAGGGGUCUAAAACUGAGCGGAUAACCUCUCUAUGG
RNA 2: GGGAAUGGAUCCACAUCUACGAAUUCGUACCAUAGAGGGAGGUUAUCCGCUCACCGAGAUCGGAAGAGCACACGU
B19: target 1 A1U,G13U (mixed)
RNA 1: CACCCGUGCAAAAAUGCAGGGGUCUAAAACUGAGCGGAUAACCUCUCUAUGG
RNA 2: GGGAAUGGAUCCACAUCUACGAAUUCGUACCAUAGAGAUGUUAUCCGCUCUCCGAGAUCGGAAGAGCACACGU
B20: target 1 insC 3' of 19,insC 3' of 5 (mixed)
RNA 1: CACCCGUGCAAAAAUGCAGGGGUCUAAAACUGAGCGGAUAACCUCUCUAUGG
RNA 2: GGGAAUGGAUCCACAUCUACGAAUUCGUACCAUCAGAGAGGUUAUCCGCCUCACCGAGAUCGGAAGAGCACACGU
B21: target 1 insU 3' of 20,insC 3' of 3 (mixed)
RNA 1: CACCCGUGCAAAAAUGCAGGGGUCUAAAACUGAGCGGAUAACCUCUCUAUGG
RNA 2: GGGAAUGGAUCCACAUCUACGAAUUCGUACCAUUAGAGAGGUUAUCCGCUCCACCGAGAUCGGAAGAGCACACGU
B22: target 1 U3C,A14C (mixed)
RNA 1: CACCCGUGCAAAAAUGCAGGGGUCUAAAACUGAGCGGAUAACCUCUCUAUGG
RNA 2: GGGAAUGGAUCCACAUCUACGAAUUCGUACCAUAGAGCGGUUAUCCGCCCACCGAGAUCGGAAGAGCACACGU
B23: target 1 A1G,G13U (mixed)
RNA 1: CACCCGUGCAAAAAUGCAGGGGUCUAAAACUGAGCGGAUAACCUCUCUAUGG
RNA 2: GGGAAUGGAUCCACAUCUACGAAUUCGUACCAUAGAGAUGUUAUCCGCUCGCCGAGAUCGGAAGAGCACACGU
B24: target 1 A9G,A16G (mixed)
RNA 1: CACCCGUGCAAAAAUGCAGGGGUCUAAAACUGAGCGGAUAACCUCUCUAUGG
RNA 2: GGGAAUGGAUCCACAUCUACGAAUUCGUACCAUAGGGAGGUUGUCCGCUCACCGAGAUCGGAAGAGCACACGU
B25: target 1 insA 3' of 22,insG 3' of 22 (mixed)
RNA 1: CACCCGUGCAAAAAUGCAGGGGUCUAAAACUGAGCGGAUAACCUCUCUAUGG
RNA 2: GGGAAUGGAUCCACAUCUACGAAUUCGUACAGCAUAGAGAGGUUAUCCGCUCACCGAGAUCGGAAGAGCACACGU
B26: target 1 C7U,C21A (mixed)
RNA 1: CACCCGUGCAAAAAUGCAGGGGUCUAAAACUGAGCGGAUAACCUCUCUAUGG
RNA 2: GGGAAUGGAUCCACAUCUACGAAUUCGUACAAUAGAGAGGUUAUUCGCUCACCGAGAUCGGAAGAGCACACGU
B27: target 1 insU 3' of 13,insA 3' of 6 (mixed)
RNA 1: CACCCGUGCAAAAAUGCAGGGGUCUAAAACUGAGCGGAUAACCUCUCUAUGG
RNA 2: GGGAAUGGAUCCACAUCUACGAAUUCGUACCAUAGAGAGUGUUAUCCAGCUCACCGAGAUCGGAAGAGCACACGU

These results are taken from PMC10786891, “Massively parallel profiling of RNA-targeting CRISPR-Cas13d”.

In this data set the target is T1, EsCas13d, nuclease-dead (Eubacterium siraeum, UniProt B0MS50, R295A;H300A;R849A;H854A).
T1 sequence: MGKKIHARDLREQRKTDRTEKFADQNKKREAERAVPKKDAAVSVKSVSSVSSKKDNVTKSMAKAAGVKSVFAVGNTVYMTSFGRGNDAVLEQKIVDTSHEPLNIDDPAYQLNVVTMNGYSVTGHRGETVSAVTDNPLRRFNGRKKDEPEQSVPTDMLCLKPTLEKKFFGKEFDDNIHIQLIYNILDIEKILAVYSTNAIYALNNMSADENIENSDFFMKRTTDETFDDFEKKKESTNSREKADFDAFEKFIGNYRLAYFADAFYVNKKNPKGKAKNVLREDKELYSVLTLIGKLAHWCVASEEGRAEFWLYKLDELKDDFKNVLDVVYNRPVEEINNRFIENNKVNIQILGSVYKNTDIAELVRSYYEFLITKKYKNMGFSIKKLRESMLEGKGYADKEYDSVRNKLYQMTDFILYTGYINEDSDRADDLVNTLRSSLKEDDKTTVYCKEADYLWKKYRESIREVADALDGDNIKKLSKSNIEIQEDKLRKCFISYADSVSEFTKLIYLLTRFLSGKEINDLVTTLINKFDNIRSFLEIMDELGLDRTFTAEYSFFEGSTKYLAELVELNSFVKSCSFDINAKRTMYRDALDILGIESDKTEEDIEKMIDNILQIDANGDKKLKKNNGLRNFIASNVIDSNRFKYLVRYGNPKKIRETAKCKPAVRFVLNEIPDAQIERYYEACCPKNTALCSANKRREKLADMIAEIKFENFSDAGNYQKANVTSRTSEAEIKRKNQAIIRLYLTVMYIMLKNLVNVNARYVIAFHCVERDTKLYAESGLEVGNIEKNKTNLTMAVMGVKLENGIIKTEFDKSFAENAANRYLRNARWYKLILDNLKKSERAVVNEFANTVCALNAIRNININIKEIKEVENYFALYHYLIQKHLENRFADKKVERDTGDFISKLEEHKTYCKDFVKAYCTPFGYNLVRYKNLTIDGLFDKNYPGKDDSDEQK
Description: crRNA (strand 1, pre-loaded); Mg2+; 40 mM Tris-HCl pH 7.5, 150 mM NaCl, 6 mM MgCl2, 1 mM DTT, 0.1% Tween-20, 0.2 mg/ml BSA; 25 C; 10 min per concentration, then washed. The conditions noted are these: tags: His6-TwinStrep-SUMO cleaved; N-terminal SNAP kept (SNAP-Surface 488); label: 3' end held by stalled T7 RNA polymerase.
What is called Kd is a measure of binding affinity in units of concentration. Higher therefore signals a looser complex. B1: the Kd worked out at 22.7 ± 2.4 nM.

Regarding B2, the dissociation constant (Kd) stood at 73 ± 9 nM.

The molecule B3 returned a Kd of 28 ± 2.2 nM.

Take B4: the Kd is 7.7 ± 0.5 nM.

In the case of B5, the Kd amounted to 45 ± 7 nM.

For B6, the Kd is 15.9 ± 0.9 nM.

Molecule B7 gave a Kd of 31.2 ± 2.2 nM.

B8: the dissociation constant (Kd) was found to be 36 ± 8 nM.

The molecule B9 had a Kd of 16.7 ± 0.7 nM.

B10 returned a Kd of 7.2 ± 0.8 nM.

Consider B11, for which the Kd worked out at 21.3 ± 2.8 nM.

Turning to B12, the affinity, expressed as Kd, was 7.75 ± 0.3 nM.

In the case of B13, the Kd was about 41 nM.

As to B14, the Kd came to 17.5 ± 1.7 nM.

In turn, B15 showed a Kd of 13.3 ± 0.8 nM.

As to B16, binding was characterised by a dissociation constant (Kd) of 74 ± 9 nM.

Take B17: the Kd came to 34 ± 4 nM.

Regarding B18, the Kd came out at 22.5 ± 1.4 nM.

Molecule B19 registered a Kd of 49 ± 10 nM.

In turn, B20 had a Kd of 75 ± 21 nM.

The molecule B21 came in with a dissociation constant (Kd) of 12.9 ± 1.3 nM.

In turn, B22 displayed a Kd of 84 ± 18 nM.

Molecule B23 returned a Kd of 41 ± 7 nM.

The molecule B24 came in with a Kd of 37 ± 4 nM.

B25 registered a Kd of 15.2 ± 0.9 nM.

As to B26, the Kd came to 24.7 ± 2.5 nM.

B27 returned a Kd of 33.9 ± 3.2 nM.
